T1: directly coated FAP (FAP) (Homo sapiens, UniProt Q12884)
T1 sequence (Q12884 1-760): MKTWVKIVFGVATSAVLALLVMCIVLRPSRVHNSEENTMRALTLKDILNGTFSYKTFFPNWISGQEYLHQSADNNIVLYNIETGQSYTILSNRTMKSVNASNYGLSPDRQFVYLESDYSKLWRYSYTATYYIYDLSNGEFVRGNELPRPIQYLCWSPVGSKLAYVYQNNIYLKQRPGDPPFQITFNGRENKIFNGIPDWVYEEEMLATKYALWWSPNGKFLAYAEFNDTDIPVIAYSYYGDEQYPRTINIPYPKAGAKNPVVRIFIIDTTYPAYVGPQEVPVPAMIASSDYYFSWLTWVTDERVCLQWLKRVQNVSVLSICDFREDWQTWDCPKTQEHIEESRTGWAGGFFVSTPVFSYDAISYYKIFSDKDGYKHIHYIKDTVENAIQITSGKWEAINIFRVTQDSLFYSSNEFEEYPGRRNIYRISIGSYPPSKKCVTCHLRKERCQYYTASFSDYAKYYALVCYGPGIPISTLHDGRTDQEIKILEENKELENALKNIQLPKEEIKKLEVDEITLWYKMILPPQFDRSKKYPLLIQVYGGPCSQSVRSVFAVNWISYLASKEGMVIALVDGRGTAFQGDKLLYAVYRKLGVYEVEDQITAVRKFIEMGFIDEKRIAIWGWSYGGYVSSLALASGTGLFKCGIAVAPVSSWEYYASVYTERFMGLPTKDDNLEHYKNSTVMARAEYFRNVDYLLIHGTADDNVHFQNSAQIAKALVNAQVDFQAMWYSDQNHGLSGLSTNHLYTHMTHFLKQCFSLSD

T2: recombinant human FAP (sFAP, FAP) versus CD26 and unrelated human antigens (A-N) (Homo sapiens, UniProt Q12884)
T2 sequence (Q12884 26-760 limits assumed): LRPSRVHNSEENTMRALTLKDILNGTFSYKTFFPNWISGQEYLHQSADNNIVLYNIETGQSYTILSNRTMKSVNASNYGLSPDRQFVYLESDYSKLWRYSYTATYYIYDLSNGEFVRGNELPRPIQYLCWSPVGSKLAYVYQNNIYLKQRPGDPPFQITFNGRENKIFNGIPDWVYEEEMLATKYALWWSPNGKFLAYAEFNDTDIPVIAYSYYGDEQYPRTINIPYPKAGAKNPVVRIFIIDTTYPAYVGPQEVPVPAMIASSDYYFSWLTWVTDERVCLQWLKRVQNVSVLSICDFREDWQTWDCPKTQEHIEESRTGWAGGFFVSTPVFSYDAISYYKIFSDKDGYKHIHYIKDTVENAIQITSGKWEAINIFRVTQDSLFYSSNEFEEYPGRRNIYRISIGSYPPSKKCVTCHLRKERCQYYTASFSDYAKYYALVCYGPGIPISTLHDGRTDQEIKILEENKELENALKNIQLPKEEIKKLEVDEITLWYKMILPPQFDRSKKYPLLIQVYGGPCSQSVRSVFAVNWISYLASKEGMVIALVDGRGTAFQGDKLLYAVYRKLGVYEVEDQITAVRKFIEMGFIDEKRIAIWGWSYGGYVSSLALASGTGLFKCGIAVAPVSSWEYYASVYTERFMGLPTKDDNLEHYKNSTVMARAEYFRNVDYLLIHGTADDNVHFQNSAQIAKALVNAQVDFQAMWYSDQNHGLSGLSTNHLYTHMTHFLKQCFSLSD


Legend:
[1] = target: T1, directly coated FAP (FAP); experiment: direct ELISA on directly coated FAP; assay type: binding; conditions: ELISA, varying antibody concentrations
Procedure: ELISA assays were performed with varying antibody concentrations to validate the binding of the exemplary antibodies of the present invention to FAP and to be able to determine their half maximal effective concentration (EC50). For the exemplary recombinant human NI-206-18H2, NI-206-20A8, NI-206-6D3, ‘NI-206-14C5, NI-206-34C11, NI-206.82C2, NI-206.59B4, NI-206.22F7, NI-206.27E8, NI-206.12G4 and NI-206.17A6 antibodies, 96-well microplates (Costar, Corning, USA) were coated with FAP, with a mixture of the 3 peptides or with BSA (Sigma-Aldrich, Buchs, Switzerland) diluted to a concentration of 5 μg/ml in carbonate ELISA coating buffer (15 mM Na2CO3, 35 mM NaHCO3, pH 9.4) for the direct ELISA. For the capture ELISA, the microplates were coated with mouse anti-His monoclonal antibody (Clontech) diluted to a concentration of 3 μg/ml in PBS, the plates were then blocked, FAP or BSA were diluted to a concentration of 2 μg/ml in PBS and added to the plates to be captured. The binding efficiency of the antibodies was then tested.
The EC50 values were estimated by a non-linear regression using GraphPad Prism (San Diego, USA) software. […] The binding of NI-206.12G4 towards sFAP was not tested.

[2] = target: T2, recombinant human FAP (sFAP, FAP) versus CD26 and unrelated human antigens (A-N); experiment: binding specificity ELISA against FAP versus unrelated human antigens; conditions: detection antibody at 20, 4 and 0.8 nM
Procedure: A mouse anti-6×-histidine tag antibody (Clonetech) was coated at a concentration of 3 μg/ml in PBS to a 96 well ELISA plate, the plates were then blocked with 5% BSA in PBS, and enzymatically active recombinant human FAP with an N-terminus 6× histidine tag was added to the plates to be captured. The binding efficiency of NI-206.82C2, NI-206.18H2, NI-206.20A8 and NI-206.6D3 (at 20 nM, 4 nM, and 0.8 nM) against sFAP and of NI-206.18H2, NI-206.20A8 and NI-206.6D3 against FAP as well was then tested by 1 hour incubation, followed by washing with PBS and detection with an HRP-labelled goat anti-human antibody (Jackson Immunoresearch) using a colormetric assay. To assess NI-206.82C2, NI-206.18H2, NI-206.20A8 and NI-206.6D3 binding other targets, recombinant human CD26 (only in case of NI-206.82C2) and fourteen other unrelated recombinant human proteins (A-N) were individually added to a 96-well ELISA plate in triplicate, and the binding efficacy of NI-206.82C2 was evaluated. (FIG. 7A to D)

Row | binding to the directly coated FAP [1] | colorimetric ELISA signal against FAP versus panel of unrelated human antigens [2] | Molecule
1 | less efficiently | significantly greater | NI-206.82C2: human-derived recombinant anti-FAP antibody; VH SEQ ID NO: 2 or 4 (PIMC), VL SEQ ID NO: 6 (antibody, V domains shown) VH: QVQLQQSGPGLVKPSQTLSLTCAISGDSVSSNSVTWNWIRQSPSRGLEWLGRTYYRSKWYNDYAVSVKGRITINPDTSKNQFYLQLKSVTPEDAAVYYCARDSSILYGDYWGQGTLVTVSS VL: QAVLTQPSSLSASPGASASLTCTLPSGINVGTYRIFWFQQKPGSPPQYLLSYKSDSDNHQGSGVPSRFSGSKDASANAGILLISGLQSEDEADYYCMIWHSSAWVFGGGTKLTVL
2 | strongly and similarly bind | significantly greater | NI-206.6D3: human-derived recombinant anti-FAP antibody; VH SEQ ID NO: 49, VL SEQ ID NO: 51 (antibody, listed as Homo sapiens, V domains shown) VH: EVQLVESGGGLVKPGESLRLSCAASGFTFSKAWMNWVRQGPGKGLEWVGRVKSKTDGGTTDYAAPVKGRFTISRDDSKDTVFLQMNSLKTEDTAVYYCSIQFIVVGDRGRDDQYMDVWGKGTTVTVSS VL: SYVLTQPPSVSVSPGQTARITCSGDALPKQYAFWYQQKPGQAPVIMIYKDNQRPSGIPERFSGSSSGTTVTLTISGVQTEDEADYYCQSADSTNTHVVFGGGTKLTVL

Row | Molecule | binding to the directly coated FAP [1] | colorimetric ELISA signal against FAP versus panel of unrelated human antigens [2]
3 | NI-206.18H2: human-derived recombinant anti-FAP antibody; VH SEQ ID NO: 41, VL SEQ ID NO: 43 (antibody, listed as Homo sapiens, V domains shown) VH: QVQLQESGPRLVKPSETLSLTCTVSGYSISNGYYWGWIRQPPGQGLEWIASVWHSGNTYHNPSLKSRVTILVDTLKNQFSLNLKSVTAADTALYYCARSYTRNDVGAFETWGQGTMVTVSS VL: SYELTQPPSVSVSPGQTARIACSGDELPKRYAYWYQQKSGQAPVLVMYEDTKRPSGIPERLSGSSSGTVTTLTISGAQVEDEADYYCYSTAPSGNHTFVFGTGTRVTVL | specifically, strongly and similarly bind | significantly greater
